Data from the domain aggregation screens of Martell et al. (2025).

Test: soluble fraction after stress (log2 fold change); higher = more stays soluble; pooled small domains, quantitative proteomics
Conditions: stress: 50 degC
Procedure, shortened: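 The measure of aggregation propensity here is the base-two logarithm of the fold change in the soluble amount of each protein after stress. A higher value means more of that protein stays in solution. Stress was applied at 50°C to pooled libraries of small protein domains, read out by high-throughput quantitative proteomics.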

| Sequence | soluble fraction (log2) |
| --- | --- |
| HMKRSFGSVRQLRSGNYQARYTGPDTVRHTSPVTYTSKMDAEAWLVDERRKISSGTWTPPAR | 0.0133 |
| HMNQDQDLSRIKGIGPEMVDRLHAQGVETLEQIAAMQMEQLKKLDQQISGNGKAVREQWAEQAKQLLTT | 0.0638 |
| HMGGPAGPDFTYTGDDLTRIDYDDGSYKVFTYDAGKLSQIDFTSGGTTTRKTFVYSGDTLIRVDQTI | -0.44 |
| HMRADRLISMLMLLQARGKITAEELAVELGVSQRTIYRDIEALSFAGVPVYAERGPGGGIGLLEPY | -1.7 |
| HMDPVILDINSVKALLGISNKADFMAELSRLVVTEGDKKMIIPLAKEVGIDNVAVYKRNEIENISNYK | -0.1 |
| HMDMAYEVVKAFHDLQDYKDVKGGKVYHHYDVGDTYPRQGLDPAPDETRIEELLSSGNAQGVPLIAEV | 0.0503 |
| HMQITNEGQIKLVISEVLNENQEQKKQYLSGKEQVLGYLIGKVMQKTKGKANPKLVNDLMIKELS | 0.257 |
| HMTSRWEIGYNVAKKYYDEHGNLDVERAVYDNFELKKWLNTQRYKNSAGTLAEKYKIKLDELGMNWER | 0.0505 |
| HMGAQRDFELQLIDVIRQNPGLTYKAYGEKLSVSQATVKRLVAKLKETGSIRREGSQRKGTWIITDD | -0.867 |
| HMGVSLNELAYRRFKQALVTLSYKPGEYLNTAQVMNDLDMGRTPINQAIHRLANEGLLQVIPRKGVMVS | -1.79 |
| HMKFKDYYAALGIDRNADLEQIKKAYRKLARQYHPDVSKAPDAEARFKDAAEAYATLKNPEKRAAYDELGS | 0.062 |
| HMGSGLAAAEKIRKAHPEIKIVVATSLIDTQVLARAKAVGADSLWYKDGDEGTLMQVVRRTMAGDHIFP | -0.00704 |
| HMGITPSIEMILEYFAFKESSETEANKFFNYYSSIGWLVGGKTKMKDWKASARNWIMNQNKFQ | -3.97 |
| HMGTSSAEIAAELRAQIFAGELRPGEMLPSAREITGTWNVAIATASRVHALLRSEGLATPVPGVGTVVAT | 0.0105 |
| HMRGLFTVYMVGEKASRVGELDEEMVYESRIGDVFALGATSWRIEEITHDRVLVSPAYGQPGRLPFWH | -2.14 |
| HMRSIVETLTDRELEIFQLIGNGFSTGEIARRLNLSPHTIETHRKNIKDKLGLSSGSELNKQAIQWVLSS | 0.153 |
| HMSEQLKQIAERIKELRNIAGLGEEELAAKLDIPVDTYREYESGNVDIPVSFLYKISGMFNVELTAIL | 0.0417 |
| HMKIDLPIWLNKKAWEAWVEYKKERKQKLTPSIIKFQLRILEKNKEDHPEIIRNSITNGWTGLFPLK | -1.27 |
| HMNKVDEEKNAELVSTIQNKFSDVSAATKKKVKAFMAEHDIPNFKNADEIPTANLEAIVAMLNED | 0.229 |
| HMINKIANLSAELRMEGLPVSIRSTQAAVKIYMDLGGDDRNLLKTALMSIYVKDRYDIPKFNKVFEKLFA | -1.12 |
| HMTANPSTEEIMARVEAIPLPIKRLPPGQIVQAQTVAATVLRSNPGLDLAKAWKLAYATVTGQE | -0.0416 |
| HMLARPTANELVKEMQRRAKEQRTELPPDAARDLLERSGQDQFLLGNEVDKLAALSGYTTITREMVAQAGT | 0.186 |
| HMFLTSDEGKIMQLLEDKQRITRKDAQELLGVSQSTAGRILKTLVDNGQITQRGGGRTTRYELIK | 0.184 |
| HMAYSEEERNLIRSRLKDVAAALFKEKGIRDTNIDEIYTPVGISKTFFYSFFPSKAVLAIAIMK | 0.0382 |
| HMDTNAIIGLRIKNLRTEKKYTLKYLSENTGLSIGFLSQLERGMTSIAIDSLDKISKVLDVELSSFFT | -1.24 |
| HMGNIADARRDASYVFLIGEWAKSSNLTEKKLAGLIQSNHLDIKYGITVTDVIADIRKYKNDPTYNPF | -0.305 |
| HMAHLNYQTVDINALIRHSLQLVSQDAQSRGIALQFTPRPELTTISADPDRLNQVLLNLYLNAMQD | -0.334 |
| HMVEFLMESTNGMYGIVKEGSSYYVQKGINESSLDYIGGMFMKDKNRFSSYSTALKRLELISGQET | -0.328 |
